The text below walks through data of paper doi:10.64898/2025.12.02.691841.

The test deals with His5-MttP (MM_1691), DME family transporter of Methanosarcina mazei (Methanosarcina mazei). As to the kind of experiment: SEC.

In the case of “MttS (sORF05), small protein of Methanosarcina mazei (natural protein)”, the stoichiometry N (usually the number of molecules, sites or subunits per partner or assembly) worked out at 1.

“MttQ (MM_1692), small protein of Methanosarcina mazei (natural protein)” gave a stoichiometry N of 1.
